Data published in article PMC12828031.

Tests used:
EGFP-vinculin = EGFP-vinculin (UniProt P18206); assay: FRET or BRET; multiphoton TCSPC-FLIM of the donor on vinculin (EGFP or mTFP1) with mScarlet-I on RIAM as acceptor; transiently transfected MEF Vinc-/- fixed in 4% PFA; also with the ROCK inhibitor H1152 (no change)
mTFP1-vinculin = mTFP1-vinculin (UniProt P18206); assay: as above

Row | Substance | FRET efficiency (EGFP-vinculin) [%] | FRET efficiency (mTFP1-vinculin) [%]
1 | mScarlet-RIAM (RIAM N-terminally tagged with mScarlet-I) (from UniProt Q7Z5R6 1-666) (natural protein) | 16.4 | 20
2 | RIAM-mScarlet (RIAM C-terminally tagged with mScarlet-I) (from UniProt Q7Z5R6 1-666) (natural protein) | 13.5 | –
